Laboratory results reported in patent US10508147B2, “Anti-nodal antibodies and methods of using same” (ANN AND ROBERT H. LURIE CHILDREN'S HOSPITAL OF CHICAGO, priority 2014, dated 2019).

Legend:
[1] = target: T1, recombinant Nodal (Homo sapiens, UniProt Q96S42); assay: Sandwich ELISA to detect Nodal with 3D1 as capture antibody; design: E. coli derived His238 Leu347, with an N-terminal Met; purchased R&D Systems; conditions: rabbit monoclonal anti-Nodal for detection
T1 sequence (Q96S42 238-347): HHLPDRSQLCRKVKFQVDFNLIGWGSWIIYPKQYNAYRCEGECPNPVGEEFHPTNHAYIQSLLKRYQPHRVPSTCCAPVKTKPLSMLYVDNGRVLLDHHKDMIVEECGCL
Excerpt: A typical calibration curve was obtained using a sandwich ELISA assay developed to detect Nodal (detection limit 50 pg/well) (See FIG. 22). The assay used monoclonal anti-Nodal antibody (designated 3D1) to coat an ELISA dish to capture rNodal (recombinant Nodal) from solutions with different concentrations of rNodal and a second, rabbit monoclonal anti-Nodal antibody to detect the captured rNodal. The resulting captured rNodal-antibody complex was then detected with an anti-rabbit antibody conjugated to horseradish peroxidase and a QuantaRed enhanced chemifluorescent horseradish peroxidase substrate.
By epitope mapping of commercially available Nodal antibodies and 3D1 mAb, the latter was chosen as the capture antibody for coating ELISA dishes, while a rabbit monoclonal anti-Nodal (Abcam) served for detecting the bound Nodal. The immune complex was subsequently quantified using a horseradish peroxidase-conjugated anti-rabbit antibody in conjunction with QuantaRed enhanced chemifluorescent horseradish peroxidase substrate (ThermoFisher). The established sandwich ELISA assay detects Nodal as a recombinant protein in conditioned media from human embryonic stem cells and in biological fluids with a detection limit (calculated using recombinant Nodal) of […]. Human serum samples from breast cancer patients were purchased from BioOptions (Brea, Calif.).

[2] = tested on: A375SM human melanoma cell line; assay: Western blot of A375SM cells treated with BRAFi (dabrafenib) or 3D1; type: cell-based; conditions: 72 hr
Method: To determine the level of Nodal expression in brain, kidney, liver, pancreas, heart and skeletal muscle ready to use adult tissue extracts for Western blotting (WB) were purchased from Santa Cruz Biotechnology. For WB experiments of cell lines, whole cell lysates were prepared and quantified. SDS-PAGE gel electrophoresis and WB were performed using standard techniques. PVDF membranes were blocked in 5% non-fat milk or 5% BSA and antibodies diluted in either 5% non-fat milk or 5% bovine serum albumin overnight at 4° C., depending on the manufacturer's recommendations. Signal was detected using West Pico chemiluminescence reagent (Thermo Fisher) and exposure to x-ray film.

[3] = target: T2, native Nodal protein in LCP, A375 and WM266 melanoma cells (Homo sapiens, UniProt Q96S42); assay: FACS staining of Nodal in fixed and permeabilized human melanoma cell lines with 3D1; type: binding; conditions: 0.1-2.0 μg/mL, dose-dependent
T2 construct: recognize the endogenous forms of Nodal protein in human melanoma cells; endogenous in cells; host or cells: human melanoma lines PES, A-375, SK-MEL, WM 266, LCM (blot); LCP, A375, WM266 (FACS)
T2 sequence (Q96S42 238-347): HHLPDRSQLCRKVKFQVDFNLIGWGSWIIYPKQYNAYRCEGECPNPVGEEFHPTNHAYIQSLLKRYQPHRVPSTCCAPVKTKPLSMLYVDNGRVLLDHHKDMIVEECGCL
Method: LCP, A375 and WM266 melanoma cells were collected by centrifugation. After aspiration of supernatant, the cells were resuspended in 500 μL of PBS and formaldehyde was added to obtain a final concentration of 4%. Cells were fixed for 10 min at room temperature. After fixation, cells were permeabilized by adding 500 μL of PBS-Tween 20. 1×10^6 cells were aliquoted into each vial; 1 mL of PBS (incubation buffer) was added to each vial and cells were washed by centrifugation at 4000 rpm for 5 min at 4° C. Cells were resuspended in 100 μL of solution of 3D1 anti-Nodal antibody (primary antibody), diluted in PBS at the following concentrations: 0.1, 0.5, 1.0 and 2.0 μg/mL. A standard IgG1 isotype was used as negative control. Cells were incubated with the primary antibody for 1 h at 4° C. under shaking. After incubation, cells were washed by centrifugation in 1 mL of PBS, resuspended and incubated with a FITC-conjugated anti-mouse antibody (secondary antibody), diluted 1:1000 (1.0 μg/mL) in PBS, for 40 min at 4° C. in the dark under stirring. Cells were washed by centrifugation with 1 mL of incubation buffer, re-suspended in […] and analyzed on flow cytometer. Fluorescence was evaluated using the BD FACScalibur System.

[4] = tested on: C8161 metastatic melanoma cells; assay: C8161 lung colonization (metastasis) model in Nude mice; type: in vivo; conditions: for lung colonization: IP 3D1 vs IgG control
Method: Lung tumor burden was determined as the mean percentage of lung occupied by C8161 melanoma cell colonies calculated from at least 5 different lung sections per individual mouse (See FIG. 26). Experimental Protocol: 250,000 C8161 metastatic melanoma cells were injected i. v. in Nude mice and lung colonization established. Following colonization, animals received by i.p. delivery either 3D1 monoclonal anti-Nodal antibody (100 μg/injection) or control IgG over the next 10 days, every other day (5 total injections).
To evaluate the in vivo effects of 3D1 mAb, a metastatic melanoma lung metastasis model was established by injecting 250,000 C8161 cells intravenously in Nude mice. After 4 days during which cells were allowed to colonize the lungs, mice were separated into treatment and control groups. The treatment group received a total of 500 μg of 3D1 mAb versus 500 μg of irrelevant isotype IgG in the control group administered over 10 days (alternate day intraperitoneal injection (IP) of 100 μg of either 3D1 mAb or IgG). At the end of the treatment period, mice were sacrificed and lungs harvested and processed for histologic evaluation of lung tumor burden and immunohistochemistry. Lung tumor burden was determined by evaluating the mean percentage of lung tissue occupied by C8161 in at least 4 separate fields at low power (10× objective) in lungs from at least 4 separate mice for each group and performed by 2 different observers. A final mean±SEM was calculated from the separate means determined by the individual observers.
Four micron thick, formalin fixed, paraffin embedded tissue sections were prepared and immunohistochemistry was carried out on a Dako Plus autostainer (DAKO, Inc, Carpenteria, Calif.). Following antigen retrieval and blocking steps, sections were incubated in primary antibody for 60 mins, followed by appropriate biotinylated secondary antibody (Biocare Medical, Conrad, Calif.), and then streptavidin-horseradish peroxidase (Thermo Scientific Lab Vision). Color was developed with 3,3′-diaminobenzidine substrate (Thermo Scientific Lab Vision) and sections were counterstained with hematoxylin (Biocare Medical, LLC). As a negative control, adjacent serial sections were incubated with species appropriate irrelevant IgG (Jackson ImmunoResearch Labs) at the same concentration as primary antibodies. Similar to the lung tumor burden evaluation described above, mean percentage of positive staining±SEM was determined by 2 different observers, each calculating the ratio of positive cells/total number of cells×100 for 4 separate high power fields (63× objective) from at least 2 different mice per group.

B1: 3D1: mouse monoclonal anti-Nodal antibody raised against hNodal(44-67); light chain SEQ ID NO:1, heavy chains SEQ ID NO:2 and 3 (protein)
light: DIKMTQSPASLSASVGETVTITCRASGNIHNYLAWYQQKQGKSPQLLVYNAKTLADGVPSRFSGSGSGTQYSLKINSLQPEDFGSYYCQHFWSTPHVRCWDQAGTETEAW
heavy 1: VKLVESGGGLVKPGGSLKLSCAASGFTFSSYAMSWVRQTPEKRLEWVASISSGGCTYYPDSVKGRFTISRDNARNILYLQMSSLRSEDTAMYYCARGSMITADGNSLLLCYGLLGSRNLXHR
heavy 2: VKLVESGGGLVQPGGSMKLSCVASGFTFRNYWMSWVRQSPEKGLEWVAEIRLKSDNYAARYAESVKGKFTISRDDSKSRLYLQMNSLRAEDTGIYYCTGIRRFAYWGQGTL
modifications: not fully specified; (120)..(120) Xaa can be any naturally occurring amino acid
[1]
  detection limit for Nodal: 50 pg/well
[1]; listed as 3D1 mAb
  detection limit for Nodal: 75 pg/well
[2]
  Nodal expression: more dramatic reduction in Nodal expression
[2]; listed as 3D1 mAb
  Nodal expression: significantly reduced
[3]
  binding to native Nodal protein in cells (FACS): bound native Nodal protein also in intact cells at very low concentrations
[4]; IHC, N=6
  mean percentage (±SEM) of cells staining for p27 in lung colonies: 39.5%±17%
  mean percentage (±SEM) of cells with nuclear localization of P-Smad2 in lung colonies: 39±8.9%
  percentage (+/−SEM) of cells staining for Cyclin B1 in lung colonies: 25.9%±9.4%
[4]; IP 100 μg alternate days over 10 days, N=8
  lung tumor burden: mean percentage (±SEM) of lung tissue occupied by C8161 colonies: 25.8%±4.6%
[4]
  lung colonization: reduced lung colonization
[4]; listed as 3D1 mAb
  lung colonization: significantly reduced
